Here are results for twelve molecules from patent US20160046684A1, “Methods and compositions for treatment of PTP1B-related diseases” (BROWN UNIVERSITY, priority 2014, published 2016).

The target of one data set is T1, PTP1B1-301 (Homo sapiens, UniProt P18031).
T1 construct: His6 (cleaved yes); made in house; host or cells: E. coli
T1 sequence (P18031 1-301): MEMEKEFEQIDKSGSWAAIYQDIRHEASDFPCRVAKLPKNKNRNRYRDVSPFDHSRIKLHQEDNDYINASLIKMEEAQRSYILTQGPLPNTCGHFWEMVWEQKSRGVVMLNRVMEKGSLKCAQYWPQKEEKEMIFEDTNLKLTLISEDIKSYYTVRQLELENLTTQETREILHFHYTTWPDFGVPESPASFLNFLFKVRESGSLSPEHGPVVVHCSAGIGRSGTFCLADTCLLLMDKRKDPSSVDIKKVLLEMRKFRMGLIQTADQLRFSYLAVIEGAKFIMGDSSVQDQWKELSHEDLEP
The data set is described as follows: NMR relaxation (R1, R2, hetNOE) of inhibitor-bound PTP1B1-301. The note with it: 1:3 ratio of PTP1B1-301 to inhibitor, compared to apo PTP1B1-301. On the procedure: Inhibitors were titrated into 200 μM ^15N-PTP1B at molar ratios of 1:1; 1:2, 1:3, 1:5 and 2D [^1H, ^15N] TROSY spectra at 850 MHz were recorded for each titration point. Inhibitors were solubilized in D6-DMSO at 25 mM. CS for PTP1B in the 2D [^1H, ^15N] TROSY spectrum caused by the addition of D6-DMSO were negligible. Chemical shift differences (Δδ) between PTP1B and inhibitor-bound PTP1B (3:1 molar ratio) spectra were calculated using: […]
Changes in motions of the domains of PTP1B1-301 bound to TCS-401 were measured by detecting nuclear relaxation time data at 500 MHz. See, FIG. 8A and FIG. 8B. Fast-timescale backbone dynamics were measured for ligand-free and inhibitor-bound (at 3:1 molar ratios) PTP1B constructs at either 850 or 500 MHz 1H Larmor frequency. ^15N longitudinal (R1) and transverse (R2) relaxation rates and ^15N [^1H]-NOE (hetNOE) measurements were acquired. The hetNOE measurements were determined from a pair of interleaved spectra acquired with or without pre-saturation, and a recycle delay of 5 seconds (only at 500 MHz ^1H Larmor frequency). Error was determined using signal to noise ratio for a given peak.

The nature of data set [1]: Circular dichroism thermal denaturation (melting temperature). Format: physicochemical. The conditions noted are these: for melting point (Tm): CD spectropolarimetry, thermal denaturation at 208 nm, 2.5 μM protein. On the procedure:
Circular dichroism (CD) spectropolarimetry was used to measure the melting temperatures of PTP1BYAYA, PTP1B1-301, and PTP1B1-284. CD measurements were performed on a Jasco J-815 CD spectropolarimeter. PTP1B samples were dialyzed at 4° C. into 10 mM sodium phosphate, pH 6.8, 150 mM NaCl. Samples were then diluted to a protein concentration of 2.5 μM and placed in a 0.2-cm glass cuvette. Wavelength scans were performed in the far-UV region from 260 to 195 nm at 25° C. at a speed of 20 nm/min. Thermal denaturation scans were performed at 208 nm from 25 to 90° C. at a scan speed of 1° C./min. Raw data were processed using the denatured protein analysis routine implemented in the SepctraAnalysis software and converted to mean residue molar ellipticity using the following equation: [θ]=θ/(10×C×1×n), where θ is ellipticity, C is the molar concentration, 1 is the cell path length in centimeters, and n is the number of residues. Plots are the average of three replicate scans.
(In general: CD spectra are sensitive to the conformation of chiral molecules.)

The subject of a further data set is PTP1B. Put plainly: Phosphatase activity of PTP1B constructs against pNPP (enzyme assay). Format: biochemical, human. The conditions noted are these: for phosphatase activity compared with other constructs (in words): FIG. 24, 25, 32B; for Km / kcat: pNPP substrate. Here is the method: Phosphatase activity of PTP1B against the general PTP/DUSP substrate, p-nitrophenyl phosphate (pNPP), was tested in 50 mM HEPES pH 7.5, 150 mM NaCl, 0.5 mM TCEP. 40 μl of enzyme at a 1.5 μM concentration was added to 60 μl of pNPP substrate resuspended in the reaction buffer. See, FIG. 25. The final concentrations of pNPP used in this experiment were […]. The enzyme was incubated with the substrate at 30° C. for 30 min, after which 100 μl of 1 M NaOH was added to a final concentration of 0.5 M NaOH to quench the reaction. Absorbance was measured at 405 nm and the final concentration of p-nitrophenol (pNP) was calculated using the molar extinction coefficient of 18000 M-1 cm-1. A control reaction in which substrate was incubated in the absence of enzyme was subtracted from all other experimental values. All experiments were performed in triplicate.
Enzyme assays were performed at pH 7.5 with 0.15 μM PTP1B to compare the activities of wild-type PTP1B1-301 to mutants with mutations in the L11 loop: PTP1BY152A/F, PTP1BY153A/F, and PTP1BYAYA. See, FIG. 17. […] Ibid. […] Ibid. […] Ibid. […] Ibid. […] Ibid. […] Ibid.
Enzyme assays were performed at pH 7.5 with 0.015 μM PTP1B to compare the activities of wild-type PTP1B1-301 to mutants with mutations in the α3 helix such as PTP1BN193A. See, FIG. 27. […] Ibid. […] Ibid. […] Ibid. […] Ibid. […] Ibid. […] Ibid.
An enzyme assay was used to compare the activity of wild-type PTP1B1-301 to the activity of PTP1B1-284 P185G. See, FIG. 15. Enzyme assays were performed at pH 7.5 with 0.015 μM PTP1B to compare the activities of wild-type PTP1B1-301 to mutants with mutations in the α7 helix. See, FIG. 32A. In one embodiment, these point mutations were made in an amino acid sequence substantially similar to SEQ ID NO: 2.

[2] abbreviates: pH 7.5, 0.015 μM PTP1B (FIG. 27, 32A, 32B).
The mark [3] stands for this setting: pH 7.5, 0.15 μM PTP1B (FIG. 17).

Where a chain is given by its changes, count along the chain named. In names and notes the source's numbering stands. Entries after “also recorded” stand apart in the source; their conditions may differ.

`CCc1oc2cc(S(=O)(=O)Nc3ccc(S(=O)(=O)Nc4nccs4)cc3)ccc2c1C(=O)c1cc(Br)c(O)c(Br)c1` [allosteric site inhibitor, 3-(3,5-Dibromo-4-hydroxy-benzoyl)-2-ethyl-benzofuran-6-sulfonic acid-(4-(thiazol-2-ylsulfamyl)-phenyl)-amide]: the “effect of inhibitor binding on PTP1B1-301 ps-ns backbone dynamics” value on PTP1B1-301 is recorded as “minimal effect”.
With `O=C(O)C(=O)Nc1sc2c(c1C(=O)O)CCNC2` [TCS-401], the “effect of inhibitor binding on PTP1B1-301 ps-ns backbone dynamics” value at PTP1B1-301 is “loss of motions in the α7 helix and part of the WPD loop”.

B1: PTP1B1-284/Δ7: truncated PTP1B, residues 1-284, lacking the α7 helix (SEQ ID NO: 3) (protein)
chain: MEMEKEFEQIDKSGSWAAIYQDIRHEASDFPCRVAKLPKNKNRNRYRDVSPFDHSRIKLHQEDNDYINASLIKMEEAQRSYILTQGPLPNTCGHFWEMVWEQKSRGVVMLNRVMEKGSLKCAQYWPQKEEKEMIFEDTNLKLTLISEDIKSYYTVRQLELENLTTQETREILHFHYTTWPDFGVPESPASFLNFLFKVRESGSLSPEHGPVVVHCSAGIGRSGTFCLADTCLLLMDKRKDPSSVDIKKVLLEMRKFRMGLIQTADQLRFSYLAVIEGAKFIMGD
modifications: The sequence was designed and synthesized
In the case of B1, the “melting point (Tm)” value in data set [1] came out at 54.9 °C. For the same molecule, in data set [1] (listed as PTP1B1-284), the “melting point (Tm)” value was found to be 54.87 °C. For the same molecule, the “phosphatase activity compared with other constructs (in words)” value in the data set on PTP1B (listed as PTP1BΔ7) is given as “lack the activity exhibited by wild-type PTP1B1; also recorded: much lower”. In the data set with PTP1B (setting [2]), the Km came to 970 ± 100 µM and the kcat amounted to 1.7 ± 0.07 s⁻¹.

B2: Wild-type PTP1B1-301: PTP1B catalytic domain, amino acid residues 1-301 (SEQ ID NO: 2) (protein)
chain: T1 sequence (P18031 1-301)
modifications: The sequence was designed and synthesized
Turning to B2, the “melting point (Tm)” value in data set [1] was found to be 55.46 °C. Further, the Km in the data set on PTP1B (setting [2]) and in the data set on PTP1B (setting [3]) was 460 ± 60 µM in each case. The kcat with PTP1B (setting [2]) and in the data set on PTP1B (setting [3]) was 6.2 ± 0.3 s⁻¹ in each case.

B3: PTP1BY152A: PTP1B1-301 mutant with mutation in the L11 loop (protein, UniProt P18031 1-301, looked up, variant Y152A)
chain: T1 sequence (P18031 1-301) with Y152A
On to B3, for which the “melting point (Tm)” value in data set [1] amounted to 53.89 °C. Moreover, in the data set on PTP1B (setting [3]), the Km amounted to 960 ± 40 µM and the kcat stood at 3.0 ± 0.06 s⁻¹.

B4: PTP1BS295A: PTP1B1-301 mutant with point mutation in the α7 helix (protein, UniProt P18031 1-301, looked up, variant S295A)
chain: T1 sequence (P18031 1-301) with S295A
With B4, in the data set with PTP1B (setting [2]), the Km came to 800 ± 70 µM and the kcat is 4.5 ± 0.1 s⁻¹.

B5: PTP1BY153A: PTP1B1-301 mutant with mutation in the L11 loop (protein, UniProt P18031 1-301, looked up, variant Y153A)
chain: T1 sequence (P18031 1-301) with Y153A
As for B5, the “melting point (Tm)” value in data set [1] amounted to 53.75 °C. Besides, in the data set on PTP1B (setting [3]), the Km amounted to 930 ± 180 µM and the turnover number (kcat) amounted to 3.6 ± 0.29 s⁻¹.

B6: PTP1BN193A: PTP1B1-301 mutant with mutation in the α3 helix (protein)
chain: T1 sequence (P18031 1-301) with N193A
modifications: The sequence was designed and synthesized
notes: PTP1B1-301 mutant with mutation in the α3 helix
On to B6, for which the “melting point (Tm)” value in data set [1] stood at 49.1 °C. Besides, in the data set with PTP1B (setting [2]), the Km was 830 ± 70 µM and the kcat was 1.7 ± 0.06 s⁻¹.

B7: PTP1BL192A: PTP1B1-301 mutant with mutation in the α3 helix (protein)
chain: T1 sequence (P18031 1-301) with L192A
modifications: The sequence was designed and synthesized
notes: as for B6
As for B7, the “melting point (Tm)” value in data set [1] is 53.89 °C. Also, in the data set with PTP1B (setting [2]), the Km was 610 ± 40 µM and the kcat is 1.86 ± 0.04 s⁻¹.

B8: PTP1BYAYA: mutant of PTP1B1-301 having point mutations at Y152 and Y153 (Y152A/Y153A) within the L11 loop (protein)
chain: T1 sequence (P18031 1-301) with Y152A, Y153A
modifications: The sequence was designed and synthesized
notes: mutant of PTP1B1-301 having point mutations at Y152 and Y153 (Y152A/Y153A) within the L11 loop
As for B8, the “melting point (Tm)” value in data set [1] was determined as 50.41 °C. Besides, in data set [1] (difference to PTP1B1-284), the “melting temperature lower than PTP1B1-284” value is “about 4.5 °C”. In data set [1] (difference to PTP1B1-301), the “melting temperature lower than for PTP1B1-301” value was “about 5 °C”. In addition, the “phosphatase activity compared with other constructs (in words)” value in the data set on PTP1B was “much lower”. Further, in the data set with PTP1B (setting [3]), the Km was determined as 450 ± 40 µM and the kcat came out at 1.8 ± 0.05 s⁻¹.

B9: PTP1BW291A: PTP1B1-301 mutant with point mutation in the α7 helix (protein, UniProt P18031 1-301, looked up, variant W291A)
chain: T1 sequence (P18031 1-301) with W291A
For B9, in the data set on PTP1B (setting [2]), the Km was determined as 990 ± 150 µM and the kcat is 4.5 ± 0.3 s⁻¹.

B10: PTP1BS295A/E297A: PTP1B1-301 double mutant in the α7 helix (protein, UniProt P18031 1-301, looked up, variant S295A E297A)
chain: T1 sequence (P18031 1-301) with S295A, E297A
For the molecule B10, in the data set on PTP1B (setting [2]), the Km turned out to be 580 ± 130 µM and the turnover number (kcat) was found to be 2.6 ± 0.13 s⁻¹.

For orientation: Km means the substrate concentration at which the rate is half of its maximum. What is called kcat is the maximal rate divided by the concentration of active sites.
